According to paper PMC2593004, “Evolutionary Diversification of Plant Shikimate Kinase Gene Duplicates” (PLoS Genetics, 2008):

Tests used:
purified protein [1] = substrate: Nc1ncnc2c1ncn2[C@@H]1O[C@H](COP(=O)(O)OP(=O)(O)OP(=O)(O)O)[C@@H](O)[C@H]1O; experiment: purified protein; assay type: biochemical, Arabidopsis thaliana; details: apparent Km, 2.5 mM shikimate fixed, 100 mM Tris-HCl pH 8.0, 25°C
purified protein [2] = substrate: O=C(O)C1=C[C@@H](O)[C@@H](O)[C@H](O)C1; experiment: purified protein; assay type: biochemical, Arabidopsis thaliana; details: apparent Km, 2.5 mM ATP fixed, 100 mM Tris-HCl pH 8.0, 25°C

| Protein | Km (purified protein [1]) [µM] | kcat (purified protein [1]) [s⁻¹] | Km (purified protein [2]) [µM] | kcat (purified protein [2]) [s⁻¹] |
| --- | --- | --- | --- | --- |
| AtSK2Δ55 (Arabidopsis thaliana) (protein, predicted N-terminal chloroplast transit peptide removed (55 residues truncated)) LRSVSDKNSSALLETGSLLHSPFDEEQQILKKKAEEVKPYLNGRSMYLVGMMGSGKTTVGKIMARSLGYTFFDCDTLIEQAMKGTSVAEIFEHFGESVFREKETEALKKLSLMYHQVVVSTGGGAVIRPINWKYMHKGISIWLDVPLEALAHRIAAVGTGSRPLLHDDESGDTYTAALNRLSTIWDARGEAYTKASARVSLENITLKLGYRSVSDLTPAEIAIEAFEQVQSYLEKEDGMARPDGL | 246.7 ± 22.56 | 149 ± 5.04 | 422.15 ± 31.16 | 136 ± 4.97 |
| AtSK1Δ55 (Arabidopsis thaliana) (protein, predicted N-terminal chloroplast transit peptide removed (55 residues truncated)) DQRRAVSPAVSCSDNNSSALLETGSVYPFDEDILKRKAEEVKPYLNGRSMYLVGMMGSGKTTVGKLMSKVLGYTFFDCDTLIEQAMNGTSVAEIFVHHGENFFRGKETDALKKLSSRYQVVVSTGGGAVIRPINWKYMHKGISIWLDVPLEALAHRIAAVGTDSRPLLHDESGDAYSVAFKRLSAIWDERGEAYTNANARVSLENIAAKRGYKNVSDLTPTEIAIEAFEQVLSFLEKEETMEIPDGDL | 218.02 ± 12.27 | 162 ± 3.01 | 648.32 ± 23.45 | 148 ± 2.32 |
